Biological target: T1, TGF-β2
T1 sequence (P61812 303-414, species assumed, looked up): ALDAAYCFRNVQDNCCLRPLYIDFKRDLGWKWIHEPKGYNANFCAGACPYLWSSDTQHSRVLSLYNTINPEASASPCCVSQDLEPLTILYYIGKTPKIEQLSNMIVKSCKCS
Experiment: cell-based or functional assay

B1: trivalent TGF-β receptor trap RER (RII-BGE-RII) (other)
chain: NGAVKFPQLCKFCDVRFSTCDNQKSCMSNCSITSICEKPQEVCVAVWRKNDENITLETVCHDPKLPYHDFILEDAASPKCIMKEKKKPGETFFMCSCSSDECNDNIIFSEEYNTSNPDGPEPSTRCELSPINASHPVQALMESFTVLSGCASRGTTGLPREVHVLNLRSTDQGPGQRQREVTLHLNPIASVHTHHKPIVFLLNSPQPLVWHLKTERLAAGVPRLFLVSEGSVVQFPSGNFSLTAETEERNFPQENEHLLRWAQKEYGAVTSFTELKIARNIYIKVGEDQVFPPTCNIGKNFLSLNYLAEYLQPKAAEGCVLPSQPHEKEVHIIELITPSSNPYSAFQVDIIVDIRPAQEDPEVVKNLVLILKCKKSVNWVIKSFDVKGNLKVIAPNSIGFGKESERSMTMTKLVRDDIPSTQENLMKWALDNGYRPVTSYTMAPVANRFHLRLENNEEMRDEEVHTIPPELRILLDPDNGAVKFPQLCKFCDVRFSTCDNQKSCMSNCSITSICEKPQEVCVAVWRKNDENITLETVCHDPKLPYHDFILEDAASPKCIMKEKKKPGETFFMCSCSSDECNDNIIFSEEYNTSNPD
modifications: N-linked glycans (as isolated, glycosylated)
  IC50 of inhibition of PAI-1 luciferase reporter activity in Mv1Lu mink lung epithelial cells induced with 20 pM TGF-β2: 70 pM

B2: bivalent TGF-β receptor trap ER (BGE-RII) (other)
chain: GPEPSTRCELSPINASHPVQALMESFTVLSGCASRGTTGLPREVHVLNLRSTDQGPGQRQREVTLHLNPIASVHTHHKPIVFLLNSPQPLVWHLKTERLAAGVPRLFLVSEGSVVQFPSGNFSLTAETEERNFPQENEHLLRWAQKEYGAVTSFTELKIARNIYIKVGEDQVFPPTCNIGKNFLSLNYLAEYLQPKAAEGCVLPSQPHEKEVHIIELITPSSNPYSAFQVDIIVDIRPAQEDPEVVKNLVLILKCKKSVNWVIKSFDVKGNLKVIAPNSIGFGKESERSMTMTKLVRDDIPSTQENLMKWALDNGYRPVTSYTMAPVANRFHLRLENNEEMRDEEVHTIPPELRILLDPDNGAVKFPQLCKFCDVRFSTCDNQKSCMSNCSITSICEKPQEVCVAVWRKNDENITLETVCHDPKLPYHDFILEDAASPKCIMKEKKKPGETFFMCSCSSDECNDNIIFSEEYNTSNPD
modifications: N-linked glycans (as isolated, glycosylated)
  IC50 of inhibition of PAI-1 luciferase reporter activity in Mv1Lu mink lung epithelial cells induced with 20 pM TGF-β2: 1200 pM

— article PMC5349899 (Oncotarget, 2016)
